The results in this text go back to article PMC6297244, “Synthesis and Kinetic evaluation of an azido analogue of methylerythritol phosphate: a Novel Inhibitor of E. coli YgbP/IspD” (Scientific Reports, 2018).

Substrate in data set [1]: C[C@](O)(CO)[C@H](O)COP(=O)(O)O
Kind of data set: Michaelis-Menten and bi-substrate steady-state kinetics (apparent Km), malachite green assay. Format: biochemical, Escherichia coli. The conditions noted are these: Mg2+ ([…] MgCl2 in assay); CTP as co-substrate sequential mechanism; ternary complex with CTP.

Substrate in data set [2]: Nc1ccn([C@@H]2O[C@H](COP(=O)(O)OP(=O)(O)OP(=O)(O)O)[C@@H](O)[C@H]2O)c(=O)n1
The data set is described as above. The conditions noted are these: Mg2+ ([…] MgCl2 in assay); MEP as co-substrate CTP-binding pocket; sequential mechanism. Type of data set: biochemical, Escherichia coli.

B1: YgbP/IspD (Escherichia coli K-12) (protein)
chain: ATTHLDVCAVVPAAGFGRRMQTECPKQYLSIGNQTILEHSVHALLAHPRVKRVVIAISPGDSRFAQLPLANHPQITVVDGGDERADSVLAGLKAAGDAQWVLVHDAARPCLHQDDLARLLALSETSRTGGILAAPVRDTMKRAEPGKNAIAHTVDRNGLWHALTPQFFPRELLHDCLTRALNEGATITDEASALEYCGFHPQLVEGRADNIKVTRPEDLALAEFYLTRTIHQENT
As to B1, the results for the Michaelis-Menten constant (Km) in data set [1] and in data set [2] were 40 ± 7 µM and 84 ± 9 µM, respectively.
